# Assay results reported in paper PMC9913352, “The Rosetta Stone Hypothesis-Based Interaction of the Tumor Suppressor Proteins Nit1 and Fhit” (Cells, 2023).
# B1: untagged human Fhit (natural protein)
# chain: not shown
# notes: Fhit (fragile histidine triad), human, 147 amino acids, ~17 kDa; also called fragile histidine triad
# Molecular target: the molecule itself
# Assay: SEC; untagged proteins after on-column TEV cleavage, Superdex 200-HR, 50 mM Tris/HCl pH 8.0, 100 mM NaCl, 2 mM MgCl2, 0.3 mL/min; calibrated with marker proteins
protein,measurement,value
B1,stoichiometry N,2
